The target of assay [1] is 重组血凝素蛋白 H1N1(A/Ohio/UR06-0091/2007) (Influenza A virus H1N1 (A/Ohio/UR06-0091/2007)).
For assay [2], the target named is 重组血凝素蛋白 H6N1(A/Califomia/HKWF115/2007) (Influenza A virus H6N1 (California/HKWF115/2007 as printed)).
In assay [3] the target is 重组血凝素蛋白 H1N2(A/swine/Guangxi/13/2006) (Influenza A virus H1N2 (A/swine/Guangxi/13/2006)).
For assay [4], the target named is 重组血凝素蛋白 H1N1(A/California/4/2009) (Influenza A virus H1N1 (A/California/4/2009)).
For assay [5], the target named is 重组血凝素蛋白 H1N1(A/California/7/2009) (Influenza A virus H1N1 (A/California/7/2009)).
For assay [6], the target named is 重组血凝素蛋白 H1N1(A/Puerto Rico/8/1934) (Influenza A virus H1N1 (A/Puerto Rico/8/1934)) (UniProt P03452).
In assay [7] the target is 重组血凝素蛋白 H1N1(A/New Caledonia/20/1999) (Influenza A virus H1N1 (A/New Caledonia/20/1999)).
Assay [8] has as its target 重组血凝素蛋白 H1N3(A/duck/NZL/160/1976) (Influenza A virus H1N3 (A/duck/NZL/160/1976)).
Assay [9] has as its target 重组血凝素蛋白 H2N2(A/Canada/720/2005) (Influenza A virus H2N2 (A/Canada/720/2005)).

B1: 抗甲型H1N1猪流感病毒血凝素蛋白鼠单克隆抗体 (antibody, V domains shown)
VH: EIQLQQTGPELVKPGAPVKISCKASGYSLTDYIILWVKQSHGKSLEWIGNINPYFGTTSYNLKFKDKATLTVDKSSSTAYMELNSLTSEDSAVYYCARNDNYAMDYWGQGTSVTVSS
VL: QIVLTQSPAIMSASLGERVTMTCTASSSVSSTYLHWYQQKPGSSPKLWIYSTSNLASGVPARFSGSGSGTSYSLTISSMEAEDAATYYCHQYHRSPYTFGGGTKLEIKR
Regarding B1, the OD450nm值 was 0.015 OD450nm in [1]; 0.003 OD450nm in assay [2]; 0.004 OD450nm in assay [3]; 2.01 OD450nm in assay [4]; 1.88 OD450nm in [5]; 0.005 OD450nm in assay [6]. The OD450nm值 in assay [7] is 0.001 OD450nm; in [8], 0.001 OD450nm; in assay [9] it was 0.002 OD450nm.

Values taken from patent publication CN104744590A.
